5 molecules from EP4669352A1 (dated 2025) can be followed below.

Usually Kd stands for the constant that tells how readily two partners part at equilibrium.

In one assay the target is T1, A27 protein (vaccinia virus, UniProt P11258 1-110).
T1 sequence: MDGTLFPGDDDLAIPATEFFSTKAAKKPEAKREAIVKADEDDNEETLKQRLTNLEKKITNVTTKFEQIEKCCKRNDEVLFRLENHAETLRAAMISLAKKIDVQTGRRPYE
In words: ELISA on recombinant VACV surface proteins. For orientation: ELISA stands for enzyme-linked immunosorbent assay.

For the next assay, the target named is B5 protein (vaccinia virus, UniProt Q01227 18-279). In words: ELISA on recombinant VACV surface proteins.
The next assay addresses T2, L1 protein (vaccinia virus, UniProt P07612 1-183).
T2 sequence: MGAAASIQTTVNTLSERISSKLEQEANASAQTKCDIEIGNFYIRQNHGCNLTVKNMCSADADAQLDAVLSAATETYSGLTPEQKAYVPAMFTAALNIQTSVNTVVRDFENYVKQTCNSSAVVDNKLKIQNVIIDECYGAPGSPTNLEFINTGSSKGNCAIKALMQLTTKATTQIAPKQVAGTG
In words: ELISA on recombinant VACV surface proteins.

Assay [1] concerns the target T3, H3 protein (vaccinia virus, UniProt P07240 1-278).
T3 sequence: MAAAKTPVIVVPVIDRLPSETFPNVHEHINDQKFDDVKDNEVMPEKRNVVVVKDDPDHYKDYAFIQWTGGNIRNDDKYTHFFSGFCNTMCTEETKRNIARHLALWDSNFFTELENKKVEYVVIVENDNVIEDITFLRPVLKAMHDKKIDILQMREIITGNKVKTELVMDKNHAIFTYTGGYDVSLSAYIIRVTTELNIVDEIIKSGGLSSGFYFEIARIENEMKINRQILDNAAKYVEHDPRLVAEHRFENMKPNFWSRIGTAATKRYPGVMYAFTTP
In words: ELISA on recombinant VACV surface proteins.

The target of assay [2] is T4, VACV A33 recombinant protein (vaccinia virus, UniProt P68616 89-185). In words: ELISA on recombinant VACV surface proteins.
Assay [3] addresses T3, H3 protein. In words: ELISA on recombinant protein.
For assay [4], the target named is T4, VACV A33 recombinant protein.

B1: EV4 (antibody, V domains shown)
VH: QVQLQESGPGLVKPSETLSLTCAVSGGSISNNYWSWVRQAPGKGLEWIGRIYGSSGSSSYNPSLTGRLTISRDTSKNQLSLRLNSMTAADTAFYYCVRQYFGPRGAFDFWGQGLRVTVSS
VL: QPGLTQSPSASEAARKSVTISCSGSSSNIGSNSVSWYQQLPETAPKLLVYYNDRRASSVSDRFSGSKSGTSASLAISGLQTEDEADYYCAAWDNSLSGYVFGAGTRLTVL
Consider B1, for which the binding result (with A27 protein; with B5 protein; with L1 protein; with H3 protein [1]; in assay [2]) was “no binding” throughout.

B2: MV31 (antibody, V domains shown)
VH: EVQLAESGGGLVPPDGSLRLSCTASGFTFSNYWMYWFRQAPGKGLEWVASISGSRRNIDYSDSVKGRFTISRDNAKNTLFLQMNRLRGDDTAVYYCAREGETSTYFFDPWGQGVLVTASS
VL: QPVLTQPPTVSKSLGQSVTISCTGTSSDVGGYNYVSWYQQRPGKAPKLLIYEVTKRPSGVSDRFSGSKSGNTASLTISGLQAEDEADYYCSSYTTSNTYIFGTGTRLTVL
For the molecule B2, the binding result with H3 protein [3] was “binds”.

B3: EV42 (antibody, V domains shown)
VH: EVQLVESGPRLVKPSETLSLTCAVSGASITSNYWSWIRQPPGKGLEWIGRTPGSSGSTDYNPSLKSRVTISTDTSKNQFSLKLTSVTAADTAVYFCARRYTDSYYLYYFDFWSQGVLVTVSS
VL: QSALTQPPSVSGSPGQSVTISCTGTNSDIGSYKYVSWYQKHPGKAPKLVIYDVSQRPSGVSDRFSGSKSGNTASLTISGLQAEDEADYYCSSYAGINTFNVFGSGTKLTIL
Turning to B3, the Kd in assay [4] is 0.095 nM.

B4: MV7 (antibody, V domains shown)
VH: QEQLVQSGGGLAKPGGSLRISCAASGFVFSRSAMHWVRQAPGKGLEWVSGISGGGATYYADSVKGRFTISRDNSKNTFSLQMNSLRLEDTAVYYCAKDRRRSVASSYFDSWGQGVLVTVSS
VL: QSVLTQPQSVSVSPGQTARISCGGDNIGSKNVHWYQQKPPQAPVLVIYAGTERPSGIPERFSGSNSGNTATLTISGVEAGDEADYYCQVWDGTREHVLFGGGTRLTVL
As to B4, the binding result in the assay with H3 protein [3] is listed as “binds”.

B5: MV26 (antibody, V domains shown)
VH: EVQLAESGGGLVQPGGSLRLSCAASGFTFSNYWMYWFRQAPGKGLEWVSSISGSRRNIHYSDSVRGRFTVSRDNAKSTLSLQMNSLRPEDTAVYYCAREGETSTFYFGYWGQGVLVTASS
VL: KPMLTQPPSVSVSPGQTARITCGGDNLGTKNVQWYQQKSAQAPVVVIYDDGERPSGIPERFSGSKSGNVATLTISGVEAGDDADYYCQVWDGSSDHPIFGRGTRLTVL
With B5, the binding result with H3 protein [3] is recorded as “binds”.
